Source: paper PMC11260014 (JTO Clinical and Research Reports, 2024)

What was measured:
ALK-positive NSCLC = conditions: monotherapy; phase 2 study, subgroups with prior ALK TKI treatment; cited from earlier work
[1] = Pharmacokinetics from blood samples; assay type: in vivo, human; conditions: serum, in combination with lorlatinib or crizotinib

Compound | Median PFS (ALK-positive NSCLC) | Ctrough level at steady state ([1]; at cycle 2) | Cmax on cycle 1 day 1 versus cycle 2 day 1 [1]
C[C@H]1Oc2cc(cnc2N)-c2c(nn(C)c2C#N)CN(C)C(=O)c2ccc(F)cc21 [Lorlatinib, lorlatinib] | 6.9–7.3 mo | – | –
avelumab | – | above 10 μg/mL | similar
